The test addresses RhpA DEAD-box RNA helicase of H. pylori, recombinant, His-tagged (H. pylori). Kind of test: SPR.

B1: H. pylori RNase R (HpRNase R), recombinant, His-tagged (enzyme)
chain: MQGFLRSLFFGVKKIPKPFAPLVEKGVLKEALELKKDRYFLKEGFDIGKVEKVKDKAFFISLAKNYPKDPLIKNLPPSFKTDALILCQIECSKKRPIAFFKAALLNADHTMIAYLAKKNNQIVAIPFKEPFKKPVSLKHSQKSLLELPRHCVVKIDTKKREISEILGALEDPLIDENLSLSLFDRVKDFSKDCLNLAQHYAQLKASDFKDRINYSHIPFITIDPKDAKDFDDAIFYDQEKRVLFVAVADVSEFVPKHSSLDKEARVRGFSVYFPNSVYPMLPLSLSQGACSLKAFEKRLALVYEIPLDNLKNARLSQGVIEVRANCTYEEINHFLSANQSSLDKDLQQSLLGFLEMALKLKKERLKKGFNFNSFENKLYLNKEGRIEKIETEKESDAHTLIEEAMLLANQSSARLLDEHFHNKGIYRTHKEPSLEQQKRLYDKLFDYEIVRPKNMGFFPFLEHALKIAKEKSIEREVSRLIIKSQNLALYSPLQESHFGLGFASYTHFTSPIRRYSDLALHRLLKELLFYQAKGCSYLLEETPELCAELNALQKKAALIERDFIKRKFARLALELLEKEFLGVVLEVKDWVVVGLKEFIGLKVLVKTNKVFKPLEKVRVTITHADLILGQVRGEITERIKEHVS
For orientation: Kd means the constant that tells how readily two partners part at equilibrium. By kon is commonly meant the second-order rate constant of association. In the case of B1, the Kd was determined as 29 ± 4.4 nM and the kon turned out to be 35000 M⁻¹ s⁻¹.

(Values after publication PMC8136821 (Nucleic Acids Research, 2021).)
